Assay [1] concerns the target T1, PD1 on activated human CD4 and CD8 T cells (human, UniProt Q15116 25-288).
T1 construct: whole, on cells; Endogenous PD1 on CD3/CD28-stimulated T cells; also called human PD1; PD1 receptor
Put plainly: flow cytometry, CD3/CD28-activated human PBMCs gated on CD3+CD4+ T cells, FITC anti-human Fc secondary antibody; no Matriptase digestion described. On the procedure: (§1) PBMCs were bought from Biomex from a healthy donor (Lot 5000899PB). The PBMCs were stimulated for 3 days with CD3 and CD28 to induce upregulation of PD1 on T cells. Therefore, PBMCs were seeded in medium (RPMI1640, 10% FCS, 2 mM Glutamine) into cell culture flasks that were coated for 1 h at 37° C. with 1 μg/ml CD3 (clone OKT3, 302914, BioLegend). CD28 was added in solution to the PBMCs at a concentration of 1 μg/ml (clone CD28.2, 302914, BioLegend). After three days, PBMCs were harvested and transferred into a 96 well round bottom plate (200′000 cells per well). The cells were washed with FACS buffer (PBS, 2% FBS, 5 mM EDTA, 0.025% NaN3) and stained with 30 μl of corresponding TA PD1-IL2v constructs in FACS buffer for 30 min at 4° C. The cells were washed twice with FACS buffer to remove unbound molecules. Then 30 μl of the diluted FITC anti-mouse Fc specific secondary antibody (1:50 dilution, 115-096-071, Jackson ImmunoResearch) or for the human constructs the diluted FITC anti-human Fc specific secondary antibody (1:50 dilution, 115-096-098, Jackson ImmunoResearch) was added to the cells. After 30 min incubation at 4° C. the cells were washed twice with FACS buffer. To detect T cells, PBMCs were stained with 30 μl of a mixture of CD3 PE/Cyanine7 (clone UCHT1, 300420, BioLegend), CD4 PE (clone RPA-T4, 300508, BioLegend) and CD8 APC (clone SK1, 344722, BioLegend) for 30 min at 4° C. The unbound antibodies were removed by washing twice with FACS buffer. Finally the cells were resuspended in 150 μl FACs buffer and measured using a BD Fortessa gating on CD3+CD4+ cells (CD4 T cells) and CD3+CD8+ cells (CD8 T cells).
A general note: A flow cytometer gives signals particle by particle.

Assay [2] concerns the target T1, PD1 on activated human CD4 and CD8 T …. Put plainly: flow cytometry, CD3/CD28-activated human PBMCs gated on CD3+CD8+ T cells, FITC anti-human Fc secondary antibody; no Matriptase digestion described. On the procedure:
as §1

Assay [3] has the same target. Put plainly: flow cytometry, CD3/CD28-activated human PBMCs gated on CD3+CD4+ T cells, PE anti-human Fc secondary antibody; TA constructs pre-incubated with Matriptase, unmasked controls not. As for the experimental part:
(§2) Three formats of TA PD1-IL2v molecules and respective controls were assessed for their capacity to bind to activated PD1 positive CD8 T cells and CD4 T cells within PBMCs in comparison to the respective unmasked molecules.
(§3) PBMCs were purchased from Biomex from a healthy donor (Lot 5000729PB). The PBMCs were stimulated for three days with CD3 and CD28 to induce upregulation of PD1 on T cells. Therefore, PBMCs were seeded in medium (RPMI1640, 10% FCS, 2 mM Glutamine) into cell culture flasks that were coated for 1 hour at 37° C. with 1 μg/ml CD3 (clone OKT3, 302914, BioLegend). CD28 was added in solution to the PBMCs at a concentration of 1 μg/ml (clone CD28.2, 302914, BioLegend). After three days, PBMCs were harvested and transferred into a 96 well round bottom plate (200′000 cells per well). The cells were washed with FACS buffer (PBS, 2% FBS, 5 mM EDTA, 0.025% NaN3) and stained with 30 μl of corresponding TA PD1-IL2v constructs in FACS buffer for 30 min at 4° C. Prior to the staining, 20 μg of the TA PD1-IL2v constructs were digested with 4 μl Matriptase (Enzo ˜2.5 U/μl, ALX-201-246-U25, Lot 12152015, or without Matriptase for the unmasked controls) for 2 hours at 37° C. in 40 μl Matriptase buffer (50 mM Tris, 50 mM NaCl, 0.01% Tween 20, pH 9.0). After the staining, the cells were washed twice with FACS buffer to remove unbound molecules. Then 30 μl of the diluted PE anti-human Fc specific secondary antibody (1:50 dilution, 109-116-170, Jackson ImmunoResearch) was added to the cells. After 30 min incubation at 4° C. the cells were washed twice with FACS buffer. To detect T cells, PBMCs were stained with 30 μl of a mixture of CD3 PE/Cyanine7 (clone UCHT1, 300420, BioLegend), CD4 FITC (clone RPA-T4, 300528, BioLegend) and CD8 APC/Cyanine7 (clone HIT8a, 300926, BioLegend) for 30 min at 4° C. The unbound antibodies were removed by washing twice with FACS buffer. Finally the cells resuspended in 150 μl FACS buffer and measured using a BD Fortessa gating on CD3+CD4+ cells (CD4 T cells) and CD3+CD8+ cells (CD8 T cells).

Assay [4] has the same target. Put plainly: flow cytometry, CD3/CD28-activated human PBMCs gated on CD3+CD8+ T cells, PE anti-human Fc secondary antibody; TA constructs pre-incubated with Matriptase, unmasked controls not. On the procedure:
as §2, §3

T1 sequence (Q15116 25-288): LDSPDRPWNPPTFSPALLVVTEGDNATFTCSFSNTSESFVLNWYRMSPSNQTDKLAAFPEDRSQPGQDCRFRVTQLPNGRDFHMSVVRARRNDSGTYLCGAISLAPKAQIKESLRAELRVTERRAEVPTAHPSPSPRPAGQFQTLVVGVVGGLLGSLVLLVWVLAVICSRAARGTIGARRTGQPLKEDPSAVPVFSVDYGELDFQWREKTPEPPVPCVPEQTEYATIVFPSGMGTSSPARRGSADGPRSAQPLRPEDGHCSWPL

B1: human TA PD1-IL2v, MT204, 2xPQARK, in line (antibody, human IgG1, kappa, L234A L235A)
light: DIVMTQSPDSLAVSLGERATINCKASESVDTSDNSFIHWYQQKPGQSPKLLIYRSSTLESGVPDRFSGSGSGTDFTLTISSLQAEDVAVYYCQQNYDVPWTFGQGTKVEIKRTVAAPSVFIFPPSDEQLKSGTASVVCLLNNFYPREAKVQWKVDNALQSGNSQESVTEQDSKDSTYSLSSTLTLSKADYEKHKVYACEVTHQGLSSPVTKSFNRGEC
heavy 1: EVQLLESGGGLVQPGGSLRLSCAASGFSFSSYTMSWVRQAPGKGLEWVATISGGGRDIYYPDSVKGRFTISRDNSKNTLYLQMNSLRAEDTAVYYCVLLTGRVYFALDSWGQGTLVTVSSASTKGPSVFPLAPSSKSTSGGTAALGCLVKDYFPEPVTVSWNSGALTSGVHTFPAVLQSSGLYSLSSVVTVPSSSLGTQTYICNVNHKPSNTKVDKKVEPKSCDKTHTCPPCPAPEAAGGPSVFLFPPKPKDTLMISRTPEVTCVVVDVSHEDPEVKFNWYVDGVEVHNAKTKPREEQYNSTYRVVSVLTVLHQDWLNGKEYKCKVSNKALGAPIEKTISKAKGQPREPQVCTLPPSRDELTKNQVSLSCAVKGFYPSDIAVEWESNGQPENNYKTTPPVLDSDGSFFLVSKLTVDKSRWQQGNVFSCSVMHEALHNHYTQKSLSLSPG
heavy 2: not shown
notes: Bivalent human PD1-targeted human IgG PG LALA with IL2v and MT204 scFv mask 'in-line' on the C-terminus of the Fc knob chain, two PQARK sites; also called P1AG9606; P1AG9606-008
As a reminder, the EC50 (read off the curve) is the concentration at which the effect is half-maximal. A low value points to greater potency. B1: the “EC50 (read off the curve)” value in assay [1] was approximately 2 nM; in assay [2], approximately 2 nM; in assay [3], approximately 0.8 nM; in assay [4], approximately 1 nM.

B2: TA PD1-IL2v, MT204, non cleavable, N-term (antibody, human IgG1, kappa, L234A L235A)
light chain of the anti-human PD1 Fab (C02011851-A): DIVMTQSPDSLAVSLGERATINCKASESVDTSDNSFIHWYQQKPGQSPKLLIYRSSTLESGVPDRFSGSGSGTDFTLTISSLQAEDVAVYYCQQNYDVPWTFGQGTKVEIKRTVAAPSVFIFPPSDEQLKSGTASVVCLLNNFYPREAKVQWKVDNALQSGNSQESVTEQDSKDSTYSLSSTLTLSKADYEKHKVYACEVTHQGLSSPVTKSFNRGEC
heavy chain, Fc hole, PG LALA (C01483382-H): EVQLLESGGGLVQPGGSLRLSCAASGFSFSSYTMSWVRQAPGKGLEWVATISGGGRDIYYPDSVKGRFTISRDNSKNTLYLQMNSLRAEDTAVYYCVLLTGRVYFALDSWGQGTLVTVSSASTKGPSVFPLAPSSKSTSGGTAALGCLVKDYFPEPVTVSWNSGALTSGVHTFPAVLQSSGLYSLSSVVTVPSSSLGTQTYICNVNHKPSNTKVDKKVEPKSCDKTHTCPPCPAPEAAGGPSVFLFPPKPKDTLMISRTPEVTCVVVDVSHEDPEVKFNWYVDGVEVHNAKTKPREEQYNSTYRVVSVLTVLHQDWLNGKEYKCKVSNKALGAPIEKTISKAKGQPREPQVCTLPPSRDELTKNQVSLSCAVKGFYPSDIAVEWESNGQPENNYKTTPPVLDSDGSFFLVSKLTVDKSRWQQGNVFSCSVMHEALHNHYTQKSLSLSPGK
MT204 scFv mask - non-cleavable linker - IL2v - Fc knob chain, PG LALA (C2184220946-K): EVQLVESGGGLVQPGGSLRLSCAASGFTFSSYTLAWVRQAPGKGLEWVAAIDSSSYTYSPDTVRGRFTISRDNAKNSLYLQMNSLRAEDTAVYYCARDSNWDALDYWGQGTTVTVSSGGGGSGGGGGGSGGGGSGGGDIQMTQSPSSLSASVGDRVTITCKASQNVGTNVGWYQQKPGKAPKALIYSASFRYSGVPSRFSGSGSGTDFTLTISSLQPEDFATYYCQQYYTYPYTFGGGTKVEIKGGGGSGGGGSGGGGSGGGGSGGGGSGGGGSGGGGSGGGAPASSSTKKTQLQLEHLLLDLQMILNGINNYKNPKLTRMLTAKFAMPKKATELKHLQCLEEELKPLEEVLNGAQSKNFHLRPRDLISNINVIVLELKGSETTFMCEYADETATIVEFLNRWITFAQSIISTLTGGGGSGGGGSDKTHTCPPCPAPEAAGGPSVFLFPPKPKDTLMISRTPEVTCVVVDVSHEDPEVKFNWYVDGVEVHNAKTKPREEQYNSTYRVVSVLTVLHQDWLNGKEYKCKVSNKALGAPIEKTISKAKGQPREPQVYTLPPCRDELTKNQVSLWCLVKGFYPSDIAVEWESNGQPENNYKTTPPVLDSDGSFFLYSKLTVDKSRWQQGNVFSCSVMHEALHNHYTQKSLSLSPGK
notes: also called human TA PD1-IL2v, MT204, non cleavable, N-term; P1AG0929
In the case of B2, the 50% effective concentration (EC50 (read off the curve)) was approximately 1 nM in assay [3] and approximately 2 nM in assay [4].

B3: human TA PD1-IL2v, MT204, 2xPQARK, knob/hole (antibody, human IgG1, kappa, L234A L235A)
light: DIVMTQSPDSLAVSLGERATINCKASESVDTSDNSFIHWYQQKPGQSPKLLIYRSSTLESGVPDRFSGSGSGTDFTLTISSLQAEDVAVYYCQQNYDVPWTFGQGTKVEIKRTVAAPSVFIFPPSDEQLKSGTASVVCLLNNFYPREAKVQWKVDNALQSGNSQESVTEQDSKDSTYSLSSTLTLSKADYEKHKVYACEVTHQGLSSPVTKSFNRGEC
heavy 1: EVQLLESGGGLVQPGGSLRLSCAASGFSFSSYTMSWVRQAPGKGLEWVATISGGGRDIYYPDSVKGRFTISRDNSKNTLYLQMNSLRAEDTAVYYCVLLTGRVYFALDSWGQGTLVTVSSASTKGPSVFPLAPSSKSTSGGTAALGCLVKDYFPEPVTVSWNSGALTSGVHTFPAVLQSSGLYSLSSVVTVPSSSLGTQTYICNVNHKPSNTKVDKKVEPKSCDKTHTCPPCPAPEAAGGPSVFLFPPKPKDTLMISRTPEVTCVVVDVSHEDPEVKFNWYVDGVEVHNAKTKPREEQYNSTYRVVSVLTVLHQDWLNGKEYKCKVSNKALGAPIEKTISKAKGQPREPQVCTLPPSRDELTKNQVSLSCAVKGFYPSDIAVEWESNGQPENNYKTTPPVLDSDGSFFLVSKLTVDKSRWQQGNVFSCSVMHEALHNHYTQKSLSLSPGGGGGSGGGGSPQARKGGGGSGGGGSGGGGSGGGGSGGGEVQLVESGGGLVQPGGSLRLSCAASGFTFSSYTLAWVRQAPGKGLEWVAAIDSSSYTYSPDTVRGRFTISRDNAKNSLYLQMNSLRAEDTAVYYCARDSNWDALDYWGQGTTVTVSSGGGGSGGPQARKGGGGSGGGDIQMTQSPSSLSASVGDRVTITCKASQNVGTNVGWYQQKPGKAPKALIYSASFRYSGVPSRFSGSGSGTDFTLTISSLQPEDFATYYCQQYYTYPYTFGGGTKVEIK
heavy 2: not shown
notes: Bivalent human PD1-targeted human IgG PG LALA; also called P1AG9607; P1AG9607-006
Consider B3, for which the entries for the “EC50 (read off the curve)” value in assay [3] and in assay [4] were approximately 0.8 nM and approximately 1 nM, respectively.

B4: human TA PD1-IL2v, MT204, non cleavable, in line (antibody, human IgG1, kappa, L234A L235A)
light: DIVMTQSPDSLAVSLGERATINCKASESVDTSDNSFIHWYQQKPGQSPKLLIYRSSTLESGVPDRFSGSGSGTDFTLTISSLQAEDVAVYYCQQNYDVPWTFGQGTKVEIKRTVAAPSVFIFPPSDEQLKSGTASVVCLLNNFYPREAKVQWKVDNALQSGNSQESVTEQDSKDSTYSLSSTLTLSKADYEKHKVYACEVTHQGLSSPVTKSFNRGEC
heavy 1: EVQLLESGGGLVQPGGSLRLSCAASGFSFSSYTMSWVRQAPGKGLEWVATISGGGRDIYYPDSVKGRFTISRDNSKNTLYLQMNSLRAEDTAVYYCVLLTGRVYFALDSWGQGTLVTVSSASTKGPSVFPLAPSSKSTSGGTAALGCLVKDYFPEPVTVSWNSGALTSGVHTFPAVLQSSGLYSLSSVVTVPSSSLGTQTYICNVNHKPSNTKVDKKVEPKSCDKTHTCPPCPAPEAAGGPSVFLFPPKPKDTLMISRTPEVTCVVVDVSHEDPEVKFNWYVDGVEVHNAKTKPREEQYNSTYRVVSVLTVLHQDWLNGKEYKCKVSNKALGAPIEKTISKAKGQPREPQVCTLPPSRDELTKNQVSLSCAVKGFYPSDIAVEWESNGQPENNYKTTPPVLDSDGSFFLVSKLTVDKSRWQQGNVFSCSVMHEALHNHYTQKSLSLSPG
heavy 2: not shown
notes: Bivalent human PD1-targeted human IgG PG LALA with masked IL2v in-line on the Fc knob chain and no matriptase sites (non-cleavable control); also called P1AG5740; P1AG5740-004
Turning to B4, the “EC50 (read off the curve)” value in assay [1] is approximately 2 nM; in assay [2] it was approximately 2 nM; in assay [3] it was approximately 0.8 nM; in assay [4] it was approximately 1 nM.

The values are drawn from patent publication US20240376171A1 (Hoffmann-La Roche, published 2024).
